Source: patent US20040204388A1 (UCB, published 2004)

Target: T1, SV2A (rat); native protein of rat brain membranes, solubilized in n-dodecyl-β-D-maltoside; also endogenous in … (rat, UniProt Q02563 1-742)
T1 construct: Native protein from rat tissue or cells, not a recombinant construct; Native glycosylated integral membrane protein; also called soluble SV2A; immunopurified SV2A
Assay: Western blot of fractions immunopurified with anti-SV2A antibodies from solubilized rat brain membranes
Protocol: The rat brain membranes were diluted in a solubilization buffer (Tris-HCl 20 mM pH 7.4, 0.25 M sucrose, protease inhibitors Complete Roche) containing n-dodecyl-β-D-maltoside 15 mM and incubated for two hours at 4° C. Subsequently, the solution was centrifuged at 4° C. for one hour at 100,000 g.

T1 sequence (Q02563 whole entry C340F): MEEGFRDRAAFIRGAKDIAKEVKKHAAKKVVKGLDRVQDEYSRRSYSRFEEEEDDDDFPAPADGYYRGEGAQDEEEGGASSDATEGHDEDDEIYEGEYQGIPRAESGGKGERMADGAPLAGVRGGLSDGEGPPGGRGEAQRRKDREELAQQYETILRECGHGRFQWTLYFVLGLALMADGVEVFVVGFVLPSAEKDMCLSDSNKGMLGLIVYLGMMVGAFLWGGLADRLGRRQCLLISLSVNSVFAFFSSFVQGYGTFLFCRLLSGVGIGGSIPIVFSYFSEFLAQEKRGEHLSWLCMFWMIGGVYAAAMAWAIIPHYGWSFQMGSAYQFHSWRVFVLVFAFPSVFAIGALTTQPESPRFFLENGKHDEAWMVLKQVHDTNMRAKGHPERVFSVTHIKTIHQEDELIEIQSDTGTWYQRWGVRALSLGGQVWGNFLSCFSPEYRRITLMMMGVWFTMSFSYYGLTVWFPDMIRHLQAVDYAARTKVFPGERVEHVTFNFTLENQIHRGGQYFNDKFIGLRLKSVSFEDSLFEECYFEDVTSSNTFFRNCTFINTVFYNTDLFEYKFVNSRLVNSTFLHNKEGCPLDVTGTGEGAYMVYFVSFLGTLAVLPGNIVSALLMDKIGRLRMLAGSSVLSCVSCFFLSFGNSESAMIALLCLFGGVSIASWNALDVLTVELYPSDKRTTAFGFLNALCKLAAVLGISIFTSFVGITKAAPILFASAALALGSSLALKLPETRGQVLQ

binding result: no binding
B1: SV2B (rat; native isoform in rat brain membranes) (other)
chain: MDDYRYRDNYEGYAPNDGYYRGNEQNPEEDAQSDVTEGHDEEDEIYEGEYQGIPHPDDVKSKQTKMAPSRADGLRGQADLMAERMEDEEQLAHQYETIIDECGHGRFQWTLFFVLVLALMADGVEVFVVSFALPSAEKDMCLSSSKKGMLGLIVYLGMMAGAFILGGLADKLGRKKVLSMSLAINASFASLSSFVQGYGAFLFCRLISGIGIGGSLPIVFAYFSEFLSREKRGEHLSWLGIFWMTGGIYASAMAWSIIPHYGWGFSMGTNYHFHSWRVFVIVCALPATVSMVALKFMPESPRFLLEMGKHDEAWMILKQVHDTNMRAKGTPEKVFTVSHIKTPKQMDEFIEIQSSTGTWYQRWLVRFMTIFKQVWDNALYCVMGPYRMNTLILAVVWFTMALSYYGLTVWFPDMIRYFQDEEYKSKMKVFFGEHVHGATINFTMENQIHQHGKLVNDKFIKMYFKHVLFEDTFFDKCYFEDVTSTDTYFKNCTIESTTFYNTDLYKHKFIDCRFINSTFLEQKEGCHMDFEEDNDFLIYLVSFLGSLSVLPGNIISALLMDRIGRLKMIGGSMLISAVCCFFLFFGNSESAMIGWQCLFCGTSIAAWNALDVITVELYPTNQRATAFGILNGLCKLGAILGNTIFASFVGITKVVPILLAAASLVGGGLVALRLPETREQVLM
notes: Native protein of rat brain; also called isoform SV2B
